Test results from patent publication US20130347134A1 (published 2013).
Substitutions are numbered along the chain they refer to. Names and notes keep the numbering of the source.

B1: murine platelet glycoprotein Ib alpha (GPIb α) on mouse platelets (receptor, UniProt O35930 17-734, looked up)
chain: QHTCSISKVTSLLEVNCENKKLTALPADLPADTGILHLGENQLGTFSTASLVHFTHLTYLYLDRCELTSLQTNGKLIKLENLDLSHNNLKSLPSLGWALPALTTLDVSFNKLGSLSPGVLDGLSQLQELYLQNNDLKSLPPGLLLPTTKLKKLNLANNKLRELPSGLLDGLEDLDTLYLQRNWLRTIPKGFFGTLLLPFVFLHANSWYCDCEILYFRHWLQENANNVYLWKQGVDVKDTTPNVASVRCANLDNAPVYSYPGKGCPTSSGDTDYDDYDDIPDVPATRTEVKFSTNTKVHTTHWSLLAAAPSTSQDSQMISLPPTHKPTKKQSTFIHTQSPGFTTLPETMESNPTFYSLKLNTVLIPSPTTLEPTSTQATPEPNIQPMLTTSTLTTPEHSTTPVPTTTILTTPEHSTIPVPTTAILTTPKPSTIPVPTTATLTTLEPSTTPVPTTATLTTPEPSTTLVPTTATLTTPEHSTTPVPTTATLTTPEHSTTPVPTTATLTTPEPSTTLTNLVSTISPVLTTTLTTPESTPIETILEQFFTTELTLLPTLESTTTIIPEQNSFLNLPEVALVSSDTSESSPFLNSDFCCFLPLGFYVLGLLWLLFASVVLILLLTWTWHVTPHSLDMEQSAALATSTHTTSLEVQRARQVTMPRAWLLFLQGSLPTFRSSLFLWVRPNGRVGPLVAGRRPSALSQGRGQDLLGTVGIRYSGHSL
notes: whole, on cells; Native receptor on mouse platelets or whole blood; also called murine GPIb α; mGPIb-α
B2: recombinant wild-type murine VWF-A1 protein, His-tagged (amino acids 1233 to 1471, pQE9), Examples 1-2 (ligand)
chain: TCEACQEPGGLVAPPTDAPVSSTTPYVEDTPEPPLHNFYCSKLLDLVFLLDGSSMLSEAEFEVLKAFVVGMMERLHISQKRIRVAVVEYHDGSRAYLELKARKRPSELRRITSQIKYTGSQVASTSEVLKYTLFQIFGKIDRPEASHITLLLTASQEPPRMARNLVRYVQGLKKKKVIVIPVGIGPHASLKQIRLIEKQAPENKAFLLSGVDELEQRRDEIVSYLCDLAPEAPAPTQPP
notes: Disulfide C1272-C1458; also called mouse VWF-A1; M VWF-A1; not shown: 10 vector-derived N-terminal amino acids including 6xHis (pQE9)
B3: recombinant murine VWF-A1 containing the type 2B mutation I1309V (1309I>V) (ligand)
chain: B2 chain with I77V
notes: not shown: 10 vector-derived N-terminal amino acids including 6xHis (pQE9)
B4: recombinant murine VWF-A1 with histidine for arginine at position 1326 (Example 1) (ligand)
chain: B2 chain with R94H
notes: also called mutated murine protein; not shown: 10 vector-derived N-terminal amino acids including 6xHis (pQE9)
B5: recombinant human VWF-A1 containing 1309I>V and 1326H>R (ligand)
chain: QEPGGLVVPPTDAPVSPTTLYVEDISEPPLHDFYCSRLLDLVFLLDGSSRLSEAEFEVLKAFVVDMMERLRVSQKWVRVAVVEYHDGSRAYIGLKDRKRPSELRRIASQVKYAGSQVASTSEVLKYTLFQIFSKIDRPEASRIALLLMASQEPQRMSRNFVRYVQGLKKKKVIVIPVGIGPHANLKQIRLIEKQAPENKAFVLSSVDELEQQRDEIVSYLCDLAPEAPPPTLPPH
B6: recombinant human VWF-A1 containing 1309I>V and the type 2M mutation 1324G>S (ligand)
chain: B5 chain with G87S, R89H
B7: recombinant murine rVWF-A1 1326R>H (residues 1238 to 1471), Example 3 (ligand)
chain: QEPGGLVAPPTDAPVSSTTPYVEDTPEPPLHNFYCSKLLDLVFLLDGSSMLSEAEFEVLKAFVVGMMERLHISQKRIRVAVVEYHDGSHAYLELKARKRPSELRRITSQIKYTGSQVASTSEVLKYTLFQIFGKIDRPEASHITLLLTASQEPPRMARNLVRYVQGLKKKKVIVIPVGIGPHASLKQIRLIEKQAPENKAFLLSGVDELEQRRDEIVSYLCDLAPEAPAPTQPP

Assays:
[1] = target: T1, murine plasma von Willebrand factor (VWF), wild type (mouse, UniProt Q8CIZ8 764-2813); assay: mouse whole blood perfused 4 min over surface-immobilized plasma VWF, 1600 s-1
T1 construct: Plasma-derived multimeric mouse VWF; also called mouse VWF; murine VWF
Experimental: Ex vivo platelet adhesion studies. Experiments were performed in a parallel-plate flow chamber as previously described (Offermanns, S., et al., 2006). […] Subsequently, the plate was washed and non-specific interactions blocked by the addition of TBS containing 3% BSA, pH 7.4 (1 hour, 37° C.). Human or murine plasma obtained from heparinized whole blood was added and the plates placed at 37° C. for an additional 2 hours. […] The number of platelets attached per unit area (0.07 mm²) and translocation velocities were determined by off-line analysis (Image-Pro Plus, Media Cybernetics). For GPIb α inhibition studies, the function-blocking mAb 6D1 (20 μg/ml) or mAb SZ2 (20 μg/ml; Beckman Coulter, Brea, Calif.) was added to anticoagulated human blood for 30 minutes prior to use. Experiments were performed in triplicate on two separate days. An ELISA was used to ensure equivalent coating concentration of plasma and recombinant proteins (Denis, C. et al., 1998).

[2] = target: T2, mouse plasma VWF containing the majority of the human A1 domain (amino acids 1240P through 1481G of human VWF) (mouse VWF with human A1 domain, UniProt Q8CIZ8 764-2813, limits assumed); assay: parallel-plate flow system: WT mouse blood infused over surface-immobilized plasma VWF
T2 construct: Plasma VWF from homozygous VWF-HA1 mice; also called VWF-HA1; VWF HA1

[3] = target: T3, murine plasma VWF containing the 1326R>H mutation (VWF^1326R>H) (mouse, UniProt Q8CIZ8 764-2813); assay: statement in Example 1; binding reduced
T3 construct: also called R1326H mutant mouse VWF; mutant murine VWF

[4] = target: B1; assay: transient tethers of VWF-A1-coated beads on surface-immobilized murine platelets; shear stress 2.0 dyn cm-2; R2 0.95
Experimental: (§1) The force acting on the i tether bond was calculated from force balance equations and koff plotted as a function of these forces. […] Because these platelets cannot activate, the kinetics should be reflective of GPIb α in the resting state.
(§2) This antibody was made by immunizing Fischer 344 rats (3-4 months old) with recombinant WT protein. […] Spleens from animals with the highest antibody titers were harvested and splenocytes fused with Sp2/0 mouse myeloma cells (Kohler, et al., 1975).

[5] = target: T4, human platelet glycoprotein Ib alpha (GPIb α) on human platelets (human, UniProt P07359 17-652); assay: human platelets (5x10^7/ml) perfused over coverslips coated with VWF-A1 (100 µg/ml), parallel plate flow chamber, 800 s-1
T4 construct: whole, on cells; Native receptor on washed platelets or whole blood; also called GPIb alpha; hGPIb-α
Experimental: (§3) The protein was subsequently used in a series of in vitro flow chamber assays to assess function. […] After 5 minutes of continuous flow, adherent platelets were quantified.

[6] = target: B1; assay: transient tethers of VWF-A1-coated beads on surface-immobilized murine platelets; shear stress 0.5 dyn cm-2; R2 0.96
Experimental: as §1, §2

[7] = target: B1; assay: transient tethers of VWF-A1-coated beads on surface-immobilized murine platelets; shear stress 3.0 dyn cm-2; R2 0.98
Experimental: as §1, §2

[8] = target: B1; assay: transient tethers of VWF-A1-coated beads on surface-immobilized murine platelets; shear stress 1.0 dyn cm-2; R2 0.95
Experimental: as §1, §2

[9] = target: B1; assay: transient tethers of VWF-A1-coated beads on surface-immobilized murine platelets; shear stress 2.0 dyn cm-2; R2 0.98
Experimental: as §1, §2

[10] = target: B1; assay: platelet adhesion to coated protein, wall shear rate 800 s^-1
Experimental: as §3
(§4) Subsequently, the ability of murine and human platelets to interact with this mutant protein substrate was evaluated at a wall shear rate of 800 s⁻¹.

[11] = target: B1; assay: platelet translocation on coated protein, wall shear rate 800 s^-1
Experimental: as §3, §4

[12] = target: T4, human platelet glycoprotein Ib alpha …; assay: human platelets perfused over immobilized mutant VWF-A1, wall shear rate 800 s-1
[13] = target: T4, human platelet glycoprotein Ib alpha …; assay: interaction times of VWF-A1-coated beads on surface-immobilized platelets, wall shear stress 1 dyn cm^-2
Experimental: (§5) The duration of these interactions are measured by recording images from a Nikon X60 DIC objective (oil immersion) viewed at a frame rate of 235 fps (Speed Vision Technologies, San Diego, Calif.) and subjected to wall shear stresses (WSS) ranging from 0.5 to 3.0 dyn cm⁻². […] The force acting on the i tether bond was calculated from force balance equations and koff plotted as a function of these forces. […] Because these platelets cannot activate, the kinetics should be reflective of GPIb α in the resting state.

[14] = target: T4, human platelet glycoprotein Ib alpha …; assay: interaction times of VWF-A1-coated beads on surface-immobilized platelets, wall shear stress 1 dyn cm^-2; 1309I>V + 1326H>R double mutant; 1 dyn cm^-2 wall shear stress
Experimental: as §5

[15] = target: T4, human platelet glycoprotein Ib alpha …; assay: human platelet attachment in flow to human VWF-A1 as a function of wall shear rate
[16] = target: T4, human platelet glycoprotein Ib alpha …; assay: parallel-plate flow chamber: human whole blood perfused over the surface-immobilized recombinant A1 protein, shear rate 1600 s^-1, accumulated platelets counted

T1 sequence (Q8CIZ8 other isoform, or with tags, fused parts or gaps limits assumed): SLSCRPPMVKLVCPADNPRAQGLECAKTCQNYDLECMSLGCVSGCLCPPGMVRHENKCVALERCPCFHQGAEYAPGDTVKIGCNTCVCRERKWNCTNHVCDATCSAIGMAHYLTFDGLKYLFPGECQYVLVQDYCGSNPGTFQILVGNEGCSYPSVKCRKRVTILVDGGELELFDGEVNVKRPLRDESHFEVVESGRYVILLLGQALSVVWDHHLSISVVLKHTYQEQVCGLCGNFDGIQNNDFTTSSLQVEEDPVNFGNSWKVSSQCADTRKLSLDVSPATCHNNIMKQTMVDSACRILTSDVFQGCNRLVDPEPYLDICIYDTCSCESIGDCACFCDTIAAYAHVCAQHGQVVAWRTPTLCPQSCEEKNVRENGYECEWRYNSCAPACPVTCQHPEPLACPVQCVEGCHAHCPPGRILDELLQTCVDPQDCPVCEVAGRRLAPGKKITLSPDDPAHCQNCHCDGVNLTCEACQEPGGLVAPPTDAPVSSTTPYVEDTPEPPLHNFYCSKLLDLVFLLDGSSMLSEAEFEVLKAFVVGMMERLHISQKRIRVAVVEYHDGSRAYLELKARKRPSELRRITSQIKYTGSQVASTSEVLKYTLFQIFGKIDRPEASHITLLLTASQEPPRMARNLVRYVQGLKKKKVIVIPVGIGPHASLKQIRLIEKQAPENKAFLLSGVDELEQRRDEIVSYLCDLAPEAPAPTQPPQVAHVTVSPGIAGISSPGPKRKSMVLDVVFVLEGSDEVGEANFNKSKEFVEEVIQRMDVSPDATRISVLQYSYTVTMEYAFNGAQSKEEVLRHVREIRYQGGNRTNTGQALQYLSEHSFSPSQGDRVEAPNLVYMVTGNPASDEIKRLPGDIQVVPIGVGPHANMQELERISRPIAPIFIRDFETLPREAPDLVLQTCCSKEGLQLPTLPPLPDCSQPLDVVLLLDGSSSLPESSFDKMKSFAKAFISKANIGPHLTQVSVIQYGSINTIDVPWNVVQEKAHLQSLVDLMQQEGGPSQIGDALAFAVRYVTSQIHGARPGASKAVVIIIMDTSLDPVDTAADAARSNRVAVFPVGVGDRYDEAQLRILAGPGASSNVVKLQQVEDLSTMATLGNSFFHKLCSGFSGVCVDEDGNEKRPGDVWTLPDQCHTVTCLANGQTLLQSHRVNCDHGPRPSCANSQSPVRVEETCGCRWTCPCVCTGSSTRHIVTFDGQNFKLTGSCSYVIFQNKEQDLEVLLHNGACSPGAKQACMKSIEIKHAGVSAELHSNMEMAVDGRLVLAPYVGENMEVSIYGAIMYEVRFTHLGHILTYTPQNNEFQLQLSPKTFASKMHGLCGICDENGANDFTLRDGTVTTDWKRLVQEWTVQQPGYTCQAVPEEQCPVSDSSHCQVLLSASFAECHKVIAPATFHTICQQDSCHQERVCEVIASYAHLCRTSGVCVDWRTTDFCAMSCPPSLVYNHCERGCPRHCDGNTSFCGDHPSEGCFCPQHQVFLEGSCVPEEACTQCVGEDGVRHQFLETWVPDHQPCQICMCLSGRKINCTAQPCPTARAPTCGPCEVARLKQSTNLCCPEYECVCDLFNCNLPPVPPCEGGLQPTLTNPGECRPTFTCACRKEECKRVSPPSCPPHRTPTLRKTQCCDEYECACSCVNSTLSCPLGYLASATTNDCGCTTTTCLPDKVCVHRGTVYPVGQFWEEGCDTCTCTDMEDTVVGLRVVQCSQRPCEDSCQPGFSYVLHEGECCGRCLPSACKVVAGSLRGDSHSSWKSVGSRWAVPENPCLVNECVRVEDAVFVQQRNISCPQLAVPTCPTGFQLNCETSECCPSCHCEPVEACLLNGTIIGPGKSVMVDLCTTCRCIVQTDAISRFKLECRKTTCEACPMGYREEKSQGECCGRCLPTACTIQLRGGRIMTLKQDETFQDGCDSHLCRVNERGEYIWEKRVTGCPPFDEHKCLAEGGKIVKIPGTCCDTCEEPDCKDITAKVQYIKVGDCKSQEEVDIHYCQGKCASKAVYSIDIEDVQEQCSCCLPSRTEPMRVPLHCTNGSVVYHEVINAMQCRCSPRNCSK
T3 sequence (Q8CIZ8 other isoform, or with tags, fused parts or gaps limits assumed): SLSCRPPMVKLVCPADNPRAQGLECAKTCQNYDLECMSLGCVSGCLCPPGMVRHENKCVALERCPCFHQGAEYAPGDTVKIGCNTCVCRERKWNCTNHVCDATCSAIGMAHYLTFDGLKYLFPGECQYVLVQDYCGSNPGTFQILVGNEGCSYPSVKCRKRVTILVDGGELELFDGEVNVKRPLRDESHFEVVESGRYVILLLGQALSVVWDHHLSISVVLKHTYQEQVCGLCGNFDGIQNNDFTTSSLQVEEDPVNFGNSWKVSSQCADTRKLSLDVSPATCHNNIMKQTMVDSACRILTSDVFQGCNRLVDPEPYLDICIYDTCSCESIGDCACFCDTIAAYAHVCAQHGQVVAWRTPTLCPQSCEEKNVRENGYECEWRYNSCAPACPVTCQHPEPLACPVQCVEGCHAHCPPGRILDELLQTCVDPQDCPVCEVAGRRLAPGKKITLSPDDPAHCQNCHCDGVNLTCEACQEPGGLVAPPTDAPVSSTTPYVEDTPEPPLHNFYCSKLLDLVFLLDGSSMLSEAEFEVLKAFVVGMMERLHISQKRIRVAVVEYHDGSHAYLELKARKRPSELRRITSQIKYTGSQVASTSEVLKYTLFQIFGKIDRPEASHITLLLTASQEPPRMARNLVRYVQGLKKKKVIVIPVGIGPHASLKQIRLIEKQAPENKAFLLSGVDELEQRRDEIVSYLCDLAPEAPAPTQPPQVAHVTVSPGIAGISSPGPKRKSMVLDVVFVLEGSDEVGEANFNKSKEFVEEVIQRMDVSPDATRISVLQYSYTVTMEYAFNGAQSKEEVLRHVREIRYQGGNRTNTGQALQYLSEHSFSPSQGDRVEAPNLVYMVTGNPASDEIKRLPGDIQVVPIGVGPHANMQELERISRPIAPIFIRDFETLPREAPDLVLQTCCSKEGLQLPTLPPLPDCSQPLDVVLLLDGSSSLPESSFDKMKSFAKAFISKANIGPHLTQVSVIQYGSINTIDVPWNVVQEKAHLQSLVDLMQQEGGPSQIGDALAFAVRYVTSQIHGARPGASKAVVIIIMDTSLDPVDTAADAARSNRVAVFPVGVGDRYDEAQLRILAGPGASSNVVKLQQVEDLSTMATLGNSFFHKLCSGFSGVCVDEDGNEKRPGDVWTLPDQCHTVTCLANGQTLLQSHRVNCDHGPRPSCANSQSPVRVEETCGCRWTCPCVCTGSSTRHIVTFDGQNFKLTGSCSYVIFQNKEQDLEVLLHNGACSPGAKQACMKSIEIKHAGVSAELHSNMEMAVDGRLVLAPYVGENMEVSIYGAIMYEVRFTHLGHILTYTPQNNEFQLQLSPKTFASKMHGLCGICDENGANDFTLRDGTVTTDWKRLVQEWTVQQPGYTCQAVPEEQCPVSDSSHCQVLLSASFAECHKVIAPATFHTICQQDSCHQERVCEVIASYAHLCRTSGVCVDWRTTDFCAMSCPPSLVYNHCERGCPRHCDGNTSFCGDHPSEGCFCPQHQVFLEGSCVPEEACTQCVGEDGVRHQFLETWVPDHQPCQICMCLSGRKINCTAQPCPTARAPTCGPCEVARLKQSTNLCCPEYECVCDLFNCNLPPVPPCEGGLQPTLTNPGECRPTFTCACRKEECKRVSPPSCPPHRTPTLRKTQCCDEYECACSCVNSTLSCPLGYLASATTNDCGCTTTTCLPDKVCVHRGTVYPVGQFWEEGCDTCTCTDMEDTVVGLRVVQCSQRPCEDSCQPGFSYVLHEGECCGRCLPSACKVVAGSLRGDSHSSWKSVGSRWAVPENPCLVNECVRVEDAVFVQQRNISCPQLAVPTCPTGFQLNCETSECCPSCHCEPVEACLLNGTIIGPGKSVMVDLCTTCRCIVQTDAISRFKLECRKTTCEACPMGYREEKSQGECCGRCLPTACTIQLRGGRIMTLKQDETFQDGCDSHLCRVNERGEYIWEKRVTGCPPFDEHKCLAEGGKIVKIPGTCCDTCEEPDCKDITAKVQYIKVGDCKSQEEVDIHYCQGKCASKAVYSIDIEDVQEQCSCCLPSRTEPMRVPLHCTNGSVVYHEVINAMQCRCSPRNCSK

Question: What does the source list for B1?
Answer: binding result [1]: binds; binding result [2]: no binding; binding result [3]: binds

Question: For B2, which koff [4] is on record?
Answer: Its koff is 8.4 s⁻¹.

Question: Does B2 bind [5]?
Answer: Result: binds

Question: What about the koff [6] of the same binder?
Answer: Its koff is 5.1 s⁻¹.

Question: What about the koff [7] of the same binder?
Answer: The koff was 9.9 s⁻¹.

Question: Which results are given for B3?
Answer: koff [8]: 0.9 s⁻¹; koff [9]: 1.6 s⁻¹; koff [6]: 0.7 s⁻¹

Question: With B4 as the binder, how does the “fold reduction in platelet adhesion versus WT mouse protein” value [10] read?
Answer: Its value is roughly 5 fold.

Question: And the “fold increase in translocation velocity versus WT mouse protein” value [11]?
Answer: The value was roughly 7 fold.

Question: Does B4 bind [12]?
Answer: Result: binds

Question: How did the “fold reduction in koff versus the single 1326H>R mutant” value [13] turn out when B5 was run?
Answer: Its value is 2 fold.

Question: What about the koff [14] of the same binder?
Answer: Its koff is 8.5 s⁻¹.

Question: Does B6 bind [15]?
Answer: Result: no binding

Question: Does B7 bind [16]?
Answer: Result: binds
